B1: DCAF4 (parent)
chain: TTKCVRQYEGHVNEYAYLPLHVHE
B2: ZNF449 (parent)
chain: RIHSGEEPHKCPECGKRFLRSSDL
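Note: lentivirally expressed fusions sorted by FACS into six bins by GFP to DsRed ratio, PSI derived from sequencing read proportions per bin multiplied by bin number.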

Variants of B1 are the subject of one data set. Kind of data set: protein stability index of a GFP-peptide fusion (GPS, HEK-293T) (PSI 1-6); higher = more stable. The following applies: c terminus: a fixed tail appended.
For TTKCKRQYEGHVNEYAYLPLHVHE [V5K], the protein stability index amounted to 1.99.
The same measure, in the same setting: for TTKCARQYEGHVNEYAYLPLHVHE [V5A] the value was 2.67; for TTKCTRQYEGHVNEYAYLPLHVHE [V5T], 2.69.
The same measure, in the same setting: in the case of TTKCVRQYEGHVNEYAYLPLHTHE [V22T] it was 3.12; in that of TTKCVRQYEGHVNEYAYLPLHDHE [V22D], 3.85.
Same read-out and setting: in the case of TTKCVRQYEGHVNEYAYLPLHFHE [V22F] it was 2.01; in that of TTKCVRQYEGHVNEYAYGPLHVHE [L18G], 3.09.
Consider TTKCVRQYEGHVNEYAYAPLHVHE [L18A], for which the protein stability index stood at 2.92.
Still for that read-out and setting: for TTKCVRRYEGHVNEYAYLPLHVHE [Q7R] the value was 2.28; for TTKCVRSYEGHVNEYAYLPLHVHE [Q7S], 2.75.
On the same count and under the same terms, in the case of TTKCVRFYEGHVNEYAYLPLHVHE [Q7F] it was 1.87; in that of TTKCVRQYEGIVNEYAYLPLHVHE [H11I], 2.75.
The same measure, in the same setting: for TTKCVRQYEGQVNEYAYLPLHVHE [H11Q] the value was 2.53; for TTKCVRQYEGHVNEYAMLPLHVHE [Y17M], 3.06; for TTKCVRQYEGHVNEYALLPLHVHE [Y17L], 3.79.
Turning to TTKCVRQYECHVNEYAYLPLHVHE [G10C], the protein stability index amounted to 2.61.
Still for that read-out and setting: in the case of TTKCVRQYEAHVNEYAYLPLHVHE [G10A] it was 2.37.
For TTKCVRQYEFHVNEYAYLPLHVHE [G10F], the protein stability index stood at 1.66.
For TTKCVRQYEHHVNEYAYLPLHVHE [G10H], the protein stability index amounted to 2.31.
On the same count and under the same terms, for TTKCVRQYEQHVNEYAYLPLHVHE [G10Q] the value was 2.24; for TTKCVRQYEGHVNEYAYLPLHVVE [H23V], 2.19.
In the case of TTKCVRQYEGHVNEYAYLPLHVQE [H23Q], the protein stability index was found to be 3.38.
Still for that read-out and setting: in the case of TTKCVRQYEGHVNEYAYLPLHVWE [H23W] it was 1.9; in that of TTKCVRQYEGHVNEYAYLPLHVDE [H23D], 3.45; in that of TTKCVRQYEGHVNEYAYLPLHVHY [E24Y], 1.89.
Still for that read-out and setting: for TTKCVRQYEGHVNEYAYLPLHVHI [E24I] the value was 2.1; for TTKCVRQYEGHVNEYAYLPLHVHC [E24C], 2.25; for ITKCVRQYEGHVNEYAYLPLHVHE [T1I], 2.
On the same count and under the same terms, in the case of TTKCVRQYDGHVNEYAYLPLHVHE [E9D] it was 3.04; in that of TTKCVRQYMGHVNEYAYLPLHVHE [E9M], 2.32.
For TTKCVRQYAGHVNEYAYLPLHVHE [E9A], the protein stability index was 2.29.
Same read-out and setting: for TTKCVRQYWGHVNEYAYLPLHVHE [E9W] the value was 1.61; for TTKQVRQYEGHVNEYAYLPLHVHE [C4Q], 2.94.
The same measure, in the same setting: in the case of TTPCVRQYEGHVNEYAYLPLHVHE [K3P] it was 3.58.
On to TTFCVRQYEGHVNEYAYLPLHVHE [K3F], for which the protein stability index was 1.55.
The same measure, in the same setting: in the case of TTECVRQYEGHVNEYAYLPLHVHE [K3E] it was 3.58.
Turning to TTTCVRQYEGHVNEYAYLPLHVHE [K3T], the protein stability index was determined as 2.71.
Same read-out and setting: in the case of TTICVRQYEGHVNEYAYLPLHVHE [K3I] it was 1.73.
Still for that read-out and setting: in the case of TTKCVRQYEGHVQEYAYLPLHVHE [N13Q] it was 2.32.
On the same count and under the same terms, in the case of TTKCVRQYEGHVFEYAYLPLHVHE [N13F] it was 2.02; in that of TTKCVRQYEGHVTEYAYLPLHVHE [N13T], 2.64; in that of TTKCVCQYEGHVNEYAYLPLHVHE [R6C], 2.53.
Consider TTKCVMQYEGHVNEYAYLPLHVHE [R6M], for which the protein stability index was determined as 2.38.
Same read-out and setting: for TTKCVGQYEGHVNEYAYLPLHVHE [R6G] the value was 2.58; for TTKCVRQYEGHVNKYAYLPLHVHE [E14K], 2.64.
With TTKCVRQYEGHVNHYAYLPLHVHE [E14H], the protein stability index was 2.05.
With TTKCVRQYEGHVNPYAYLPLHVHE [E14P], the protein stability index turned out to be 2.57.
The same measure, in the same setting: in the case of TTKCVRQYEGHVNTYAYLPLHVHE [E14T] it was 2.23; in that of TTKCVRQYEGHVNCYAYLPLHVHE [E14C], 2.03; in that of TTKCVRQYEGHVNEYAYLPGHVHE [L20G], 2.41.
Regarding TTKCVRQYEGHVNEYAYLPRHVHE [L20R], the protein stability index stood at 3.21.
Still for that read-out and setting: for TMKCVRQYEGHVNEYAYLPLHVHE [T2M] the value was 2.52; for TFKCVRQYEGHVNEYAYLPLHVHE [T2F], 2.47.
Same read-out and setting: for TIKCVRQYEGHVNEYAYLPLHVHE [T2I] the value was 2.19.
Same read-out and setting: in the case of TTKCVRQYEGHVNEYAYLPLKVHE [H21K] it was 2.16; in that of TTKCVRQYEGHVNEYAYLPLTVHE [H21T], 2.8.
Turning to TTKCVRQYEGHVNEYAYLPLQVHE [H21Q], the protein stability index worked out at 2.66.
Same read-out and setting: for TTKCVRQYEGHVNEYAYLPLDVHE [H21D] the value was 3.55; for TTKCVRQYEGHVNEYAYLPLIVHE [H21I], 2.12; for TTKCVRQYEGHPNEYAYLPLHVHE [V12P], 2.69.
On the same count and under the same terms, for TTKCVRQYEGHFNEYAYLPLHVHE [V12F] the value was 2.11; for TTKCVRQYEGHANEYAYLPLHVHE [V12A], 3.03.
For TTKCVRQMEGHVNEYAYLPLHVHE [Y8M], the protein stability index was determined as 2.89.
With TTKCVRQVEGHVNEYAYLPLHVHE [Y8V], the protein stability index came out at 3.17.
Still for that read-out and setting: for TTKCVRQREGHVNEYAYLPLHVHE [Y8R] the value was 2.94; for TTKCVRQWEGHVNEYAYLPLHVHE [Y8W], 2.42; for TTKCVRQYEGHVNECAYLPLHVHE [Y15C], 3.56.
Still for that read-out and setting: in the case of TTKCVRQYEGHVNEHAYLPLHVHE [Y15H] it was 3.02; in that of TTKCVRQYEGHVNEDAYLPLHVHE [Y15D], 3.36; in that of TTKCVRQYEGHVNEYAYLILHVHE [P19I], 2.46.
With TTKCVRQYEGHVNEYAYLTLHVHE [P19T], the protein stability index was found to be 1.53.
The same measure, in the same setting: in the case of TTKCVRQYEGHVNEYAYLELHVHE [P19E] it was 1.82; in that of TTKCVRQYEGHVNEYAYLHLHVHE [P19H], 1.96.

Another data set covers variants of B2. The data set is described as above. The following applies: c terminus: a fixed tail appended.
On to RIHSGEEPHKCPECGKRYLRSSDL [F18Y], for which the protein stability index came to 3.87.
On the same count and under the same terms, in the case of RIHSGEEPHKCPECGKRWLRSSDL [F18W] it was 3.5; in that of RIHSGEEPHKCPECGKRNLRSSDL [F18N], 4.68; in that of RIHSGEEPHKCPECGKRQLRSSDL [F18Q], 3.58.
As to RIHSGEEPHKCPECGKRVLRSSDL [F18V], the protein stability index amounted to 2.92.
The same measure, in the same setting: for RIHSGEEPHKCPECGKRRLRSSDL [F18R] the value was 3.33; for RIHSGEEPHKCPECGKRTLRSSDL [F18T], 3.75; for RIHSGEEPHKCPECGKRPLRSSDL [F18P], 3.83.
On the same count and under the same terms, for RIHSGEEPHKCPECGKRSLRSSDL [F18S] the value was 3.29.
The same measure, in the same setting: in the case of RIHSGEEPHKCPECGKRFLRNSDL [S21N] it was 3.56.
With RIHSGEEPHKCPECGKRFLRCSDL [S21C], the protein stability index is 3.69.
On to RIHSGEEPHKCPECGKRFLRISDL [S21I], for which the protein stability index was 3.04.
For the variant RIHSGEEPHKCPECGKRFLRDSDL [S21D], the protein stability index turned out to be 4.25.
On the same count and under the same terms, in the case of RIHSGEEPHKCPECGKRFLRASDL [S21A] it was 3.31; in that of RIHSGEEPHKCPECGKRFLRRSDL [S21R], 2.65; in that of RIHSGEEPHKCPECGKRFLRHSDL [S21H], 3.44.
Same read-out and setting: for RIHSGEEPHKCPECGKRFLRGSDL [S21G] the value was 3.75.
Same read-out and setting: for RIHSGEEPHKCPECGKRFLRKSDL [S21K] the value was 4.17.
As to RIHSGEEPHKCPECGKRFLRFSDL [S21F], the protein stability index is 2.15.
Still for that read-out and setting: for RIHSGEEPHKCPECGKRFLRLSDL [S21L] the value was 2.48.
Regarding RIHSGEEPHKCPECGKRFLRTSDL [S21T], the protein stability index is 3.56.

Values taken from the supplement of paper PMC10567573.
